{"source": "paper PMC5290273", "about": "(Nature Communications, 2017)", "parents": {"B1": {"name": "His6-tagged wild-type AFF4^ELLBow (AFF4 301–351) [human] / Sumo-ELL2^Occ, wild type [human] (parent complex)", "chain 1": "PSQPLDASASGDVSCVDEILKEMTHSWPPPLTAIHTPCKTEPSKFPFPTKE", "chain 2": "EPSAIELPDYLIKYIAIVSYEQRQNYKDDFNAEYDEYRALHARMETVARRFIKLDAQRKRLSPGSKEYQNVHEEVLQEYQKIKQSSPNYHEEKYRCEYLHNKLAHIKRLIGEFDQQQAESWS"}, "B2": {"name": "Sumo-ELL2^Occ, wild type [human] / fluorescently labelled AFF1^ELLBow peptide 358–390 [modified: C-FAM-GABA- at the N-terminus (FAM: 5-carboxyfluoroscein; GABA: γ-amino-butyric acid spacer); C-terminal amide; C-FAM-GABA- at the N-terminus … (parent complex)", "chain 1": "B1 chain 2", "chain 2": "EILKEMTHSWPPPLTAIHTPSTAEPSKFPFPTK"}}, "data": [{"variants_of": "B1", "assay": "fluorescence polarisation competition; residual anisotropy at the highest unlabelled AFF4 concentration, about 30 µM read from the x axis; higher residual anisotropy = weaker competition; read off a plot", "units": {"response": "mP"}, "values": [{"variant": "chain 1 W27D, chain 1 L31D, chain 1 I34D", "response": "~46"}, {"variant": "chain 1 M23D, chain 1 L31D, chain 1 I34D", "response": "~63"}, {"variant": "chain 1 L31D, chain 1 I34D", "response": "~17"}]}, {"variants_of": "B1", "assay": "fluorescence polarisation competition; residual anisotropy at the highest unlabelled AFF4 concentration, about 30 µM read from the x axis; higher residual anisotropy = weaker competition; read off a plot", "remark": "another data set of the same source", "units": {"response": "mP"}, "values": [{"variant": "chain 1 D17P, chain 1 E18P", "response": "~7"}]}, {"variants_of": "B2", "assay": "fluorescence polarisation, direct titration; signal at the highest Sumo-ELL2 concentration, about 30 µM read from the x axis; read off a plot", "units": {"response": "mP"}, "values": [{"variant": "chain 1 H41E, chain 1 H90E, chain 1 N101A, chain 1 K107T", "response": "~7"}]}]}
